The values that follow come from patent publication US20200148733A1.

This assay concerns the target human IL-23 (human) (UniProt Q9NPF7). Description: cell-based or functional assay.

human IL-23 (human), sequence (Q9NPF7 20-189, chain 1 of 2): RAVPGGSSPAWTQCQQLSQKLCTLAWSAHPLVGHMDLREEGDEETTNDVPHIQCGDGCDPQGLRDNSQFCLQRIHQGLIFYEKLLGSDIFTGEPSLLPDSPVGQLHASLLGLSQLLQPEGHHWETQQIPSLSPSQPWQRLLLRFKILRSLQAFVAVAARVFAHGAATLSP
human IL-23 (human), sequence (P29460 23-328, chain 2 of 2, further chain): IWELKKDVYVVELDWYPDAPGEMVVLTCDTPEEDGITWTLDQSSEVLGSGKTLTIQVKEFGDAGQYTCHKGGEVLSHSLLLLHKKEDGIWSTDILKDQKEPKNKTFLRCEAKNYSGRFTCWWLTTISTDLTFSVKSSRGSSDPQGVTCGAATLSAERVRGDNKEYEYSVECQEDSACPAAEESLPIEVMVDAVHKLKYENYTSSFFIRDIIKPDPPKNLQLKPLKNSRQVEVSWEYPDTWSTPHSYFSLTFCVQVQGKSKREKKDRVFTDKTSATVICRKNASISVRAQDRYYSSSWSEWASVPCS

“benchmark antibody ustekinumab (Stelara, obtained from Janssen-Cilag)” showed an EC50 [nM] AVERAGE, hIL-23-induced proliferation of Ba/F3 cells expressing hIL-23R and hIL-12Rβ1 of 2.4 nM; an EC50 [nM] Exp 1, hIL-23-induced proliferation of Ba/F3 cells expressing hIL-23R and hIL-12Rβ1 of 1.9 nM; an EC50 [nM] Exp 2, hIL-23-induced proliferation of Ba/F3 cells expressing hIL-23R and hIL-12Rβ1 of 2.3 nM; an EC50 [nM] Exp 3, hIL-23-induced proliferation of Ba/F3 cells expressing hIL-23R and hIL-12Rβ1 of 3.5 nM. The substance also yielded an EC50 [nM] Exp 4, hIL-23-induced proliferation of Ba/F3 cells expressing hIL-23R and hIL-12Rβ1 of 2 nM; an IC50, hIL-23-induced proliferation of Ba/F3 cells expressing hIL-23R and hIL-12Rβ1 of 11.1 nM.
